In the DeepSol protein solubility set:

Assay: soluble on expression in E. coli; label from the status in PepcDB or PDB records

Soluble on expression in E. coli, not soluble:
MGSDKIHHHHHHMPTPTRWQEKLPEAATTYLEGRRLDEVECVISDLPGIARGKAVPASKFAKQDYFYLPDSIFYQTITGDWAEAADEDGWIEKDMLLRPDMSTATAAPWTGDWTLQVIHDAYDRDGNPIPFSPRNVLKHVVSLYEAQGWKPVVAPEMEFYLVARNVDPARDIQPMMGRSGRPAAARQAYSMTAVDEFGPVIDDIYDFAEAQGFEIDGITQEGGAGQLEINLRHGSPVKLADEVFYFKRLIREAALRHDCFATFMAKPIADEPGSAMHIHHSVIDIESGENIFSGPQGGETDAFYHFIGGLQNHLPAGLAVMAPYVNSYRRYVKNHAAPINLEWARDNRTTGIRVPLSSSASRRVENRIAGMDCNPYLGIAVSLACGYLGLMEERRPTRQFKGDAYEGEGDFPQVMGQALDLFDESKALHEVLGPEFARVYSTVKRAEYEEFLQVISPWEREHLLLNV
MGSDKIHHHHHHMPVMFQQMQYFIAIVNNHSFTQAAVDCHISQSAISQQMKELESQLGVKLLNRKGRSFEVTEAGQYFYIHSQDILADVDQLIKKTIKIEKNDEVELRVGYLRSFGTAEFLQTVSKFTQEFPKVKIKISSGTHEELYELLQTGKIDLNFSDQRRALSNEYQNEFLTASEFMVAVNNSLPVETQKIDVADLVDIPCILIIDGHQQVSEEEYYRNVLGVKSEFVIAKSYDEAQMLIASNQGYLIINQRMRTQLDKDIVKMISLVKGDRKLIQNYYAYWQANNSGYYIETFAELLKQTFA
MGSDKIHHHHHHMQALRKCYGIVGADDIVSEMKTWQVTSNDPHEGLTKWADGLDEAFVQLEPVATTGDGFYGHIQQTSTAELDVSVVTSTGHEIRRLDRHIRHRSADLLYVNILGRGRSEVSQRDTVVAAPMDVSIVDPRAPYSIRQEAPFQLVSIAVPPDWVEREARHCHFLSRTAAGRELSSVVWGLAKMLLAIKPDQDGLATSLAQQIHHSLALLPEMAGSDATPRVSVAMLQSYVQRHFSQPDLRAEHLARQFGISVRRVHQLFEPTGHTVSEFINDLRLARAADCLGDAALARRTISEIAWQVGYSDPSYFTRRFKRRYGCSPRAYRAAHHPAPIARLS
MGSDKIHHHHHHMQDDRLFPYGHARGAGWREALSSALEMAGPRVRGGTLGFLYVTDSFESDLPDILSAVREQTGVPHWTGCVGAGICATAQEYLDEPALAFMVTDFPETEFRLFAGMGPYRTGKSWPTGPGRPPYFAIVHGDSQTPDLPDLVRDFAGQMGSGFITGGICSSRTDGAQLVDEVVHGGLSGVTFSENIAVATRLTQGCSPIGPIHHINEAHNNVISRLDDRPALDVFNDETCDILSRDLQRAAGFIFVAMPVKNDDRGDYMVRTLVGIDIERKLLAIGEYAEAGQSLMFCKRDSGTAGEDLERMLSDISRLADGRKIRGGLYFTCVWRGQNLFGPDSAELRMIRDGLGDFPLVGFFANAEISHDKIYGYTGVLTLFLDAPTS
MGSDKIHHHHHHMQGVPEHFTDERDYAQFRHLPTLPGIELYHAHICRYAFEPHTHEAFGIGTIDDGAEQFRYRGAKHIAPVDSLVLMNPDELHTGESATEDGWRYRMIYIPPDVLESVSGEKGWWFTDVVRHDPATARQLAMTLAALWQTTDPLASESLLLSLIALFRPHAHIAQRQVVEPFHRFDVVKAYLRENFAHTITLKELAALVSLSPYHFLRQFKTQFHVTPHQMLMAIRLYEAKQMLTRGMAAAHVALAVGLTDQAHLTRTFAQRYGVTPIRYQKQVYPTLR
MGSDKIHHHHHHMQIESFKSLLPKYKCIFFDAFGVLKTYNGLLPGIENTFDYLKAQGQDYYIVTNDASRSPEQLADSYHKLGLFSITADKIISSGMITKEYIDLKVDGGIVAYLGTANSANYLVSDGIKMLPVSAIDDSNIGEVNALVLLDDEGFNWFHDLNKTVNLLRKRTIPAIVANTDNTYPLTKTDVAIAIGGVATMIESILGRRFIRFGKPDSQMFMFAYDMLRQKMEISKREILMVGDTLHTDILGGNKFGLDTALVLTGNTRIDDAETKIKSTGIVPTHICESAVIEL
MGSDKIHHHHHHMQKLGIFIYSLGSGGAERVVATLLPILSLKFEVHLILMNDKISYEIPECQIHFLECSKPSENPILKFLKLPFLALKYKKLCRNLGIDTEFVFLNRPNYIALMARMFGNKTRLVINECTTPSVMYMKNNFNSLVNKFLISLLYPKADLILPNSKGNLEDLVQNFSISPKKCEILYNAIDLENIGQKALEDIALKDKFILSVGRLDKGKNHALLIRAYARLKTDLKLVILGEGVLKDELLALIKELNLEEKVLLLGFDNNPYKYMAKCEFFAFASVFEGFSNVLIESLACSCAVVCTDHKSGARELFGDDEFGLLVEVDNENSMFQGLKTMLEDDKLRKAYKNKAKTRAKAFDKVKIARDALKYLLG
MGSDKIHHHHHHMQKTPALLSDIGNNEDASVYQISPDLALVQTLDFITPIVDSAYHFGAIAAANALSDVFAMGAEVINALNIVGFDTCNHDLNILKELLEGANDKVKECNALVVGGHTIESTELFFGLSVTGKVHPSKFIANNTSKIGDCIILTKPLGTGILSTALKAQMLNQKHLDIMLKNMIELNYKASQIALKFHPSAMSDVTGFGLLGHLKEMLNKNISFEIFESELPFLDGVKEYFNMGLIPAGAYKNLEFIKELTPDLNEEKLLLCDPQTSGGLLISISEKDSLECLKKLEDENIQAKIIAKVVNKQENDIIIS
MGSDKIHHHHHHMQLIFFRGMKELLSTMDLDTDANTIPELKERAHMLCARFLGGAWKTVPLEHLRISRIKGGMSNMLFLCRLSEVYPPIRNEPNKVLLRVYFNPETESHLVAESVIFTLLSERHLGPKLYGIFSGGRLEEYIPSRPLSCHEISLAHMSTKIAKRVAKVHQLEVPIWKEPDYLCEALQRWLKQLTGTVDAEHRFDLPEECGVSSVNCLDLARELEFLRAHISLSKSPVTFCHNDLQEGNILLPKASSGNIRMPSLSDETQALGNSLSAFNPADPRLVLIDFEYASYNYRAFDFANHFIEWTIDYDIDEAPFYKIQTENFPENDQMLEFFLNYLREQGNTRENELYKKSEDLVQETLPFVPVSHFFWGLRERSSVAVLQT
MGSDKIHHHHHHMQLLGPTSNTFISQRLRLHYVDWGNADKPPLLLVHGGRDHCRSWDWTAEALREDWHIIALDHRGHGDSQWTQDGNYRTMDLVYDVAQLIHQLDLAPVTIVSHSWGANTSLRYAGLFPENVRKIVAIEGLFPTPEREALMKDVPFARRVREFIVEKRKAAGRLPRRYATLEDAYARMKGENPYLTDAQARHLTLHGINRNEDGTFSWKFDPHLNVDGAPYDISTDQRNELWGAITCPTLLLNGADSWAGNPDRNGMAQHFRNAQVVEFENAGHWLHHDQFDRFIATLRDFL
MGSDKIHHHHHHMQMFCYQCSQTANGTGCTEYGVCGKSPTVARLQDNLVFAIKGISAYYYHARELGYDDPEIAGFLDEALYSTLTNVNFDAQSFVEYALEAGRMNLKAMQLLKKAHIETYGEPTPVEVETGTKKGKGIIVTGHNLKALEELLKQVEGTNVYVYTHSEMLPAHGYPGLRKYKNLIGNLGKAWYDQRKLFAEYPVAILGTSNCVLIPSESYRDRMFTTSIARLPGVKHIDGYDYTEVIEKAKSLPDLEEKPGSYKLRTGFSTSVVVSLADKIKELVEAGKIKHFLVVGGCDVPFKRNEYYREFVQKLPKETVVITLACGKFRINDLDLGDIDGIPRLIDVGQCNDTIVAIEIAQALAKVFGVEVTELPLTLVLTWMEQKAVAILWTLLALGLKNIYVGPVLPAWVNEDILKVLTAEFGLKTISEP
MGSDKIHHHHHHMQNLPIYLYPNTLDVILDSGATTKGVNRVMYQHELKIQKGIKNKVRIQFKNSDQKRIVTSGTYVFSMYDAINQRLLLEKPLDILDDGTTFALRGLAELTLTENDTMDLDVSKYQFSVKYLDEDGTYLPTYSNTYYGVTGTLNLLQDVYPVLQPSQEITSFDRTYDDSIQLYQWRSGNIYATPEFNGNSALHTIAMYMTGFKGKVLVQGTLYNTPSSFNRYVTLGRKRV
MGSDKIHHHHHHMQNPAIGNVADTTASDFAELPATASHGPLRIEYRWVNAAAGNAPIAVFLHEGLGSVTMWRDWPQALCERLGMRGLVYSRPGYGLSTPRPHDVKWPADFMTAQARDILPALLDALCIDMRERRRMWVIGHSDGGSITLLYAALYPEELAGAVAIAPHVFVEDISVESIAQTRQLYETTDLRSKLGRYHADVDSAFYGWNDIWLNPAFRQWSIAGELTSIRKPLLAVQGHDDNYGTMAQIDTIAAHVPHAQLVKLDACGHSPHRDAPQPLNKAIAAFVLKDGVA
MGSDKIHHHHHHMQPETSAQYQHRFSQAIRGGEAADGLPQDRLNVYIRLIRNNIHSFIDRCYTETRQYFDSKEWSRLKEGFVRDARAQTPYFQEIPGEFLQYCQSLPLSDGILALMDFEYTQLLAEVAQIPDIPDIHYSNDSKYTPSPAAFIRQYRYDVTHDLQEAETALLIWRNAEDDVMYQTLDGFDMMLLEIMGSSALSFDTLAQTLVEFMPKADNWKNILLGKWSGWIEQRIIIPSLSAISENMEGNSPSQNHLSA
MGSDKIHHHHHHMQPSAVTNTTNLTASPSQFYTWQNYRCTYEIHQPTNTTSEGIPLLLIHPIGVGLSRQFWQRFCHEWYNSGQRNSIYNPDLLGCGESDMPHLAYTPSDWAEQLQYFLQTVVRQPVIVVVQGALLPVAIALVQKESNLISRLVLSGPPTWALMTNKPPEWQQKFIWNVLDSPLGIPFYRYARTPKFLRSFSTRQLFASESAVDAEWLNTLVAGAENPASRHAVFSFLAGFWRQDYTNFMASIQQPTLAVVGETASSISQNNKKETPDDRLANYLACFPQSRGIKINGRNVLPYESTAEFVAAIAPFINEVS
MGSDKIHHHHHHMQPYYWESAHGNFGDDLNLWLWDFLMPGFRDVHPETLLVGVGTVLNRALLPEGQHKLVIGSGFGYGSLPDMSRPEEWDIRSVRGPLTAKALGLPPEKGVIDPAVMLADMPEFQKLPKLYKKSFVPHWESAVAGVWASIVPKVGLTYIDPCGEAKAVIRQILQSEVIIAESMHGAIIADALRVPWVAVSTSASINSFKWNDWASTLGVTYKPLRVPLSSRAEAQIKGESFWGMSFKNHQPAPENPNDLAVDAAVLEQARGPKQTGLRTAVKQILAGPAMLNLWKASQAEPQLSRDSVLQERKARFLEVIEGVRRDYGIAAVS
MGSDKIHHHHHHMQRDLGKNVKLFNDIKADDLSVMLSCLGVKNQQYEKRSIIIMAEDNVDHVGVVLRGAVLIVKEDFSGNRSIVDHIGQYEMFGEAFACAGIQKSPVTVVAAEKSEIMWIQFRRIFNTCSMSCVFHAKLIENMMKVLAVKNLQMNQKLEITSKRNLRDKLMAYLLIQAKEAKSFDFIIPLNRSELADYLYVDRSALSRELCKMRDEGLIEFKKNHFCMSPM
MGSDKIHHHHHHMQRKKIGVALGSGAAKGWAHIGVLNALTEMGIEVDVVAGCSIGALVGAAYATNNLSSMDRWVRSFGYWDVIRLMDLSWQRGSLLRGDRVFNSVKHLLHTTQIEDCDIKYGVVTTNLSTGRELWLTEGDLHQAMRASCSMPGLLSPVRFNDYWLVDGAVVNPVPVSLARAMGADIVIAVDLQHDASLNHQDLLSIKPTASDIDAENVPQDWRSRIRERLLRGRRHPAESSPTAMEIMSTSIQILENRLKMTRMAGDPPDVLLQPHCPQIATLDFHRAQEAIDAGYKAVEKMRDELLPLAKEA
MGSDKIHHHHHHMQSLPHDVVGYARDYRDGYVSVRHRHPRHQLIYAISGLMMAETDAMSHAIPPGYGLIVPAQQPHEIRMIGAVRLQSLYVRAGLPRADALARCRLVTISPLLAQLIAALCEMANPWPMPPRALHLSQLILIELLAAPVSPLALPYPTDPRLRRVCDGLIATPASPRSLDDWAAEAGMSRRTFSRHFQLETGLSFGKWAQRLRCQAALRGLAKGRPAARVARELGYANAYTMAAMMRRMT
